Measurements published in patent publication US10617743B2, “Method to improve safety and efficacy of anti-cancer therapy” (CLS Therapeutics Limited, priority 2014, dated 2020).
Like-named read-outs stand apart in the source and are kept apart here.

Tests used:
[1] = system: white blood cell count (WBC); assay: Cyclophosphamide-induced neutropenia in mice (FIG. 3); assay type: in vivo; conditions: for Effect on typical early phase decline in WBC count (FIG. 3): cyclophosphamide 200 mg/kg IP Day 1, DNase I 25 mg/kg/day IV or GM-CSF 200 μg/kg/day SC on Days 2-5
Procedure: 30 female 10-12 week old BALB/C mice (obtained from Rappolovo animal house) were used in this experiment. […] Starting on Day 2, mice were then treated as follows: • 1. Group I (n=10): control (no treatment); • 2. […] Group III (n=10): animals were treated with human recombinant GM-CSF (Neostim, Pharmsynthez OJSC) at 200 μg/kg/day dose injected subcutaneously (SC) on Days 2-5. […] The graph in FIG. 3 summarizes the dynamics of the white blood cell count (WBC) in the three experimental groups. The vertical axis represents WBC with units of 10^9 WBC/L. The horizontal axis represents the number of days after cyclophosphamide injection.

[2] = system: gastrointestinal lesions; assay type: in vivo, rats; conditions: for Total number of lesions per group: 16 rats
Procedure: On Day 1, Etoposide (LANCE) 200 mg/kg and 5-fluorouracil (5-FU; EBEWE) 400 mg/kg were given orally via feeding needle in 500 μl of a 9% glucose solution. Animals were divided into 4 groups of 16 rats each. […] Group I: IV placebo (WFI); • 2. Group II: human recombinant DNase I (Pharmsynthez OJSC) at 1.5 mg/kg (3000 KU/kg) dose IV; • 3. Group III: human recombinant DNase I (Pharmsynthez OJSC) at 50 mg/kg (100000 KU/kg) dose IV; • 4. Group IV: cimetidine solution (Gedeon Richter) at 50 mg/kg dose IV.
36 hours later, all animals were euthanized and their stomachs were removed and analyzed for the presence of erosions and hemorrhages using an automated video analyzer system.

[3] = system: Wistar male rats; conditions: for Number of dead/out of total in group: monitored 2 weeks
Excerpt: Group I: control group (no Doxorubicin, no DNase); • 2.
Animals were monitored during 2 weeks from the beginning of experiment for survival and weight.

[4] = system: L1210 leukemia cells; assay: Survival of mice transplanted with L1210 leukemia cells (FIG. 4); assay type: in vivo; conditions: DBA2 mice; AraC 1000 mg/kg IP Days 2, 5, 8; DNase II 15 or 45 mg/kg/day IP; alone or combined
Procedure: Treatment with DNase and AraC was initiated on Day 1 of experiment. Cytosine arabinoside (AraC; Cytosar, Pfizer) was injected IP at a dose of 1000 mg/kg on Days 2, 5 and 8. The injected doses were considered adequate for the model and injection route based on prior experiments (13-14). DNase II (Wornington) was injected IP at doses of 15 mg/kg/day and 45 mg/kg/day on Days 1, 3, 5, 8, 10, 12, 15, 17, and 19.
Animals were randomized into 6 experimental groups of 6 mice per group as follows: • 1. Group I: negative control (no treatment); • 2. Group II: positive control (animals treated with AraC); • 3. […]; • 4. Group IV: animals treated with AraC and 45 mg/kg DNase; • 5. Group V: animals treated with 15 mg/kg DNase, no AraC; • 6. Group VI: animals treated with 45 mg/kg DNase, no AraC.
The vertical axis of FIG. 4 represents the survival measured in days after implantation with the L1210 leukemia cells. The six experimental groups are represented on the horizontal axis: 1—Negative Control; 2—AraC (positive control); 3—AraC+DNase II 15 mg/kg; 4—AraC+DNase II 45 mg/kg; 5—DNase II 15 mg/kg 6—DNase II 45 mg/kg.

[5] = system: myocardium; assay: Myocardial necrosis area in deceased rats challenged with doxorubicin (FIG. 1); assay type: in vivo; conditions: Doxorubicin 7.5 mg/kg IV, DNase I 15 mg/kg daily IP vs placebo
Procedure: FIG. 1 is a bar graph showing myocardial necrosis area in deceased rats challenged with sub-lethal IV doses of doxorubicin (7.5 mg/kg) and either daily IP injections of human recombinant DNase I (15 mg/kg) (black bar) or daily […] injections of placebo (WFI) (diagonal hatched bar). Serial myocardium microscopy samples from each heart were analyzed using an automated video analyzer to quantify the necrotic areas. The sum of necrotic area (Sna; nm^2) was calculated as a sum of necrotic areas in 30 serial slides from each individual autopsied heart (n=3 for DNase I-treated rats—black bar; n=5 for placebo-treated rats—diagonal hatched bar).
The hearts deceased rats challenged with sub-lethal doses of doxorubicin (7.5 mg/kg) from (Groups IV and V) were autopsied. Serial myocardium microscopy samples from each heart were analyzed using an automated video analyzer to quantify the necrotic areas. The sum of necrotic area (Sna; nm^2) was calculated as a sum of necrotic areas in 30 serial slides from each individual autopsied heart (n=3 for Group IV (FIG. 1, black bars); n=5 for Group V (FIG. 1, diagonal hatched bars)). Group IV received daily IP injections of human recombinant DNase I at 15 mg/kg dose, while Group V received daily IP injections of placebo (WFI).

[6] = system: Erlich carcinoma cells; assay: Survival of mice with Erlich carcinoma, DNase with or without radiotherapy; assay type: in vivo; conditions: for % Survival on Day 16: no radiotherapy
[7] = Body weight of mice with Erlich carcinoma, DNase with or without radiotherapy; assay type: in vivo
[8] = system: thymocytes; assay: Con A-induced lymphocyte blast transformation of thymocytes from paclitaxel-treated mice; assay type: in vivo; conditions: paclitaxel 20 mg/kg IV, DNase gamma 2 mg/kg IP
Procedure: 10 male 6-week-old (CBAxCS7Bl6) F1 mice (obtained from Rappolovo animal house) were given a single 20 mg/kg dose of paclitaxel (Paclitaxel-Teva) IV. A group of 5 paclitaxel treated mice were injected IP 1 hour later with recombinant mouse DNase gamma (USCN Life Science Inc.) at 2 mg/kg dose IP. A group of 5 untreated mice were injected IP at the same time with 1 ml of placebo (WFI) to serve as the control. All mice were killed 24 hours later by cervical dislocation. The thymuses from each group were collected and homogenized in a separator in RPMI 1640 media supplemented with 10% fetal calf serum. The suspension of thymocytes was filtered and sedimented in a centrifuge at 400×g for 2 minutes and then resuspended with the same media. Thymocytes were plated into 96 well plates (900,000 cells per well in 200 μl of RPMI 1640 supplemented with 10% fetal calf serum (FCS)) and incubated for 32 hours at 37° C., 100% humidity and 5% CO2 atmosphere. Each well was then supplemented with ^3H thymidine (1 μCi/10 μl/well) and Concanavalin A (ConA; 50 μl: 1.25 μg/ml). After 24 hours of further incubation, thymocytes were harvested and dried. Labeled ^3H thymidine incorporation was measured using a Beckman scintillation counter.

[9] = treatment 50 mg/kg IV 2 h after Etoposide 200 mg/kg + 5-FU 400 mg/kg per os
[10] = Doxorubicin 7.5 mg/kg/day IV 5 days with DNase I 15 mg/kg/day IP (Group IV) or placebo IP (Group V)
[11] = Doxorubicin 10.0 mg/kg/day IV 5 days with DNase I 15 mg/kg/day IP (Group VI) or placebo IP (Group VII)
[12] = DNase I 15 mg/kg/day IP with Doxorubicin IV 5 days
[13] = of 16 rats, treatment 50 mg/kg IV after Etoposide 200 mg/kg + 5-FU 400 mg/kg per os

With “GM-CSF: human recombinant GM-CSF (Neostim, Pharmsynthez OJSC)” the “Effect on typical early phase decline in WBC count (FIG. 3)” value [1] was “not able to prevent it”.

With `CN/C(=N/CCSCc1nc[nH]c1C)NC#N` [Cimetidine, cimetidine, reference compound] the “Total number of lesions per group” value [2, 9] was 40.

For `COc1cccc2c1C(=O)c1c(O)c3c(c(O)c1C2=O)C[C@@](O)(C(=O)CO)C[C@@H]3O[C@H]1C[C@H](N)[C@H](O)[C@H](C)O1` [Doxorubicin, reference compound], the “Number of dead/out of total in group” value [3, 10] was 5/6 and the “Number of dead/out of total in group” value [3, 11] was 6/6.

With `Nc1ccn([C@@H]2O[C@H](CO)[C@@H](O)[C@@H]2O)c(=O)n1` [AraC, cytosine arabinoside] the “Survival after implantation with L1210 leukemia cells (FIG. 4)” value [4] was “better survival rates”.

B1: human recombinant DNase I: human recombinant DNase I (Pharmsynthez OJSC), deoxyribonuclease enzyme (protein, UniProt P24855 23-282, looked up)
Deoxyribonuclease-1: LKIAAFNIQTFGETKMSNATLVSYIVQILSRYDIALVQEVRDSHLTAVGKLLDNLNQDAPDTYHYVVSEPLGRNSYKERYLFVYRPDQVSAVDSYYYDDGCEPCGNDTFNREPAIVRFFSRFTEVREFAIVPLHAAPGDAVAEIDALYDVYLDVQEKWGLEDVMLMGDFNAGCSYVRPSQWSSIRLWTSPTFQWLIPDSADTTATPTHCAYDRIVVAGMLLRGAVVPDSALPFNFQAAYGLSDQLAQAISDHYPVEVMLK
With B1 the “Effect on myocardial necrosis area (FIG. 1)” value [5] was “decreases the myocardial necrosis area”, the “Effect on lethality of doxorubicin” value [3, 12] was “suppresses the lethality of doxorubicin” and the “Effect on life span of rats challenged with sub-lethal doses of doxorubicin” value [3, 12] was “increases the life span”. For the same molecule, the “Number of dead/out of total in group” value [3, 10] was 3/6, the “Number of dead/out of total in group” value [3, 11] was 6/6 and the “Survival rates versus non-treated mice” value ([6]; DNase I alone (Groups 2 and 3)) was “better survival rates”. The “% Survival on Day 16” value ([6]; Group 2: DNAse I 20 mg/kg/day intramuscularly in 2 daily doses) was 40%, the “% Survival on Day 16” value ([6]; Group 3: DNAse I 40 mg/kg/day intramuscularly in 2 daily doses) was 50% and the “Survival of combination of radiation therapy and DNase versus either treatment alone” value ([6]; Groups 4 and 5, dose-dependent on DNase) was “clear survival advantage”. The “Effect on neutropenia induced by cyclophosphamide (FIG. 3)” value ([1]; cyclophosphamide 200 mg/kg IP Day 1, DNase I 25 mg/kg/day IV Days 2-5) was “ameliorates neutropenia”, the “Effect on typical early phase decline in WBC count (FIG. 3)” value [1] was “prevents the typical early phase decline in WBC count” and the “Change in Median Body Weight on Day 16” value ([7]; Group 4: radiotherapy 200 cGy per day for 5 days plus DNAse I 20 mg/kg/day intramuscularly) was 0 g. The “Effect on body weight loss induced by radiotherapy” value ([7]; mice with Erlich carcinoma, radiotherapy plus DNase I) was “clearly prevents the body weight loss”, the “Total number of lesions per group” value ([2]; treatment 1.5 mg/kg IV 2 h after Etoposide 200 mg/kg + 5-FU 400 mg/kg per os) was 60 and the “Total number of lesions per group” value [2, 9] was 16. The “Achieved protection compared to 1.5 mg/kg DNase I dose and 50 mg/kg dose of cimetidine” value ([2]; DNase I 50 mg/kg IV, rats treated with etoposide and 5-FU) was “significantly superior”, the “Number of lesion free animals” value ([2]; of 16 rats, treatment 1.5 mg/kg IV after Etoposide 200 mg/kg + 5-FU 400 mg/kg per os) was 5 and the “Number of lesion free animals” value [2, 13] was 12. The “Number of lesion free animals (percent)” value [2, 13] was 75% and the “Effect on chemotherapy-induced ulceration” value ([2]; rats treated with etoposide and 5-FU, dose-dependent (1.5 and 50 mg/kg IV)) was “suppresses chemotherapy-induced ulceration”.

B2: DNase gamma: recombinant mouse DNase gamma (USCN Life Science Inc.) (protein, UniProt O55070 26-310, looked up)
Deoxyribonuclease gamma: LRLCSFNVRSFGASKKENHEAMDIIVKIIKRCDLILLMEIKDSSNNICPMLMEKLNGNSRRSTTYNYVISSRLGRNTYKEQYAFVYKEKLVSVKTKYHYHDYQDGDTDVFSREPFVVWFHSPFTAVKDFVIVPLHTTPETSVKEIDELVDVYTDVRSQWKTENFIFMGDFNAGCSYVPKKAWQNIRLRTDPKFVWLIGDQEDTTVKKSTSCAYDRIVLCGQEIVNSVVPRSSGVFDFQKAYDLSEEEALDVSDHFPVEFKLQSSRAFTNNRKSVSLKKRKKGNRS
For B2, the “Effect on taxane-induced suppression of thymocytes' proliferative activity” value [8] was “ameliorates taxane-induced suppression”.
